The values that follow are results of earlier work, collected in PMC3064480.

This data set concerns the target TβRII ED (Homo sapiens) (UniProt P37173). As to the kind of experiment: SPR.

TGF-β1, sequence (P01137 279-390): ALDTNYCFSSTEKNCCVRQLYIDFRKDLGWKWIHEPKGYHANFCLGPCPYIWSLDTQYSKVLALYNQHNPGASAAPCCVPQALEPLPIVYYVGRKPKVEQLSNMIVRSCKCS
TβRII ED (Homo sapiens), sequence (P37173 23-166): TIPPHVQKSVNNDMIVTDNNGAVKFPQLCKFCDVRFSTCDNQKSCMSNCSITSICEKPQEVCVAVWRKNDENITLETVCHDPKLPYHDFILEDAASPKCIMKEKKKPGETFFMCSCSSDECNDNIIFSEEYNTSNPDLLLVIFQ

TGF-β1 (from UniProt P01137): the Kd was 5 pM.
